The values that follow come from article PMC4699573 (Molecular bioSystems, 2016).

The target of this test is T1, EcoR124I (Escherichia coli, UniProt P10484+P10485+P10486).
T1 sequence (P10485 1-404): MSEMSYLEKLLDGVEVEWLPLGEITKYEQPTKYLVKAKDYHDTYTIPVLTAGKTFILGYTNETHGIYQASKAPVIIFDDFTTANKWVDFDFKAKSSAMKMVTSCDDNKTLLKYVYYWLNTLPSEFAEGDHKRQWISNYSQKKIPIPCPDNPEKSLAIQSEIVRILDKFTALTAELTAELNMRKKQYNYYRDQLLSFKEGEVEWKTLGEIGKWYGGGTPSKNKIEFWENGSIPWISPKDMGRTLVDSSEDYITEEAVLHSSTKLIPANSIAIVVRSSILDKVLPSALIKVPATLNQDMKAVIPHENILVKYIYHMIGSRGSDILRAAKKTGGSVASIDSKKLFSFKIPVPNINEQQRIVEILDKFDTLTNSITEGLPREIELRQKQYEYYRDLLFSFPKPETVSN
T1 sequence (P10484 1-520): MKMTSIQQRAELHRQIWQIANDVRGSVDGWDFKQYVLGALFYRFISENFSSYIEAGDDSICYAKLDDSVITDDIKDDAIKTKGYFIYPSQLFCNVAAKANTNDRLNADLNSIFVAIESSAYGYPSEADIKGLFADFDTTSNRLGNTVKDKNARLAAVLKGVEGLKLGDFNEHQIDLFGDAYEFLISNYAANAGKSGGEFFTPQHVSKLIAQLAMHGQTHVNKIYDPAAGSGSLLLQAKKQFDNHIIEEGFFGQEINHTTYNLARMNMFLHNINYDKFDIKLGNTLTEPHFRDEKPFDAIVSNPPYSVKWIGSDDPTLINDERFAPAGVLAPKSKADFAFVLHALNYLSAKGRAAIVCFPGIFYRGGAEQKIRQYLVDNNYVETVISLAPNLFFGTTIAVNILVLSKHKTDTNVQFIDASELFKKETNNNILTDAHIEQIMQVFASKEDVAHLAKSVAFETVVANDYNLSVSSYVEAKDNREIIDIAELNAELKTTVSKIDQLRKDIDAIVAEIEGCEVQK
T1 sequence (P10486 1-1038): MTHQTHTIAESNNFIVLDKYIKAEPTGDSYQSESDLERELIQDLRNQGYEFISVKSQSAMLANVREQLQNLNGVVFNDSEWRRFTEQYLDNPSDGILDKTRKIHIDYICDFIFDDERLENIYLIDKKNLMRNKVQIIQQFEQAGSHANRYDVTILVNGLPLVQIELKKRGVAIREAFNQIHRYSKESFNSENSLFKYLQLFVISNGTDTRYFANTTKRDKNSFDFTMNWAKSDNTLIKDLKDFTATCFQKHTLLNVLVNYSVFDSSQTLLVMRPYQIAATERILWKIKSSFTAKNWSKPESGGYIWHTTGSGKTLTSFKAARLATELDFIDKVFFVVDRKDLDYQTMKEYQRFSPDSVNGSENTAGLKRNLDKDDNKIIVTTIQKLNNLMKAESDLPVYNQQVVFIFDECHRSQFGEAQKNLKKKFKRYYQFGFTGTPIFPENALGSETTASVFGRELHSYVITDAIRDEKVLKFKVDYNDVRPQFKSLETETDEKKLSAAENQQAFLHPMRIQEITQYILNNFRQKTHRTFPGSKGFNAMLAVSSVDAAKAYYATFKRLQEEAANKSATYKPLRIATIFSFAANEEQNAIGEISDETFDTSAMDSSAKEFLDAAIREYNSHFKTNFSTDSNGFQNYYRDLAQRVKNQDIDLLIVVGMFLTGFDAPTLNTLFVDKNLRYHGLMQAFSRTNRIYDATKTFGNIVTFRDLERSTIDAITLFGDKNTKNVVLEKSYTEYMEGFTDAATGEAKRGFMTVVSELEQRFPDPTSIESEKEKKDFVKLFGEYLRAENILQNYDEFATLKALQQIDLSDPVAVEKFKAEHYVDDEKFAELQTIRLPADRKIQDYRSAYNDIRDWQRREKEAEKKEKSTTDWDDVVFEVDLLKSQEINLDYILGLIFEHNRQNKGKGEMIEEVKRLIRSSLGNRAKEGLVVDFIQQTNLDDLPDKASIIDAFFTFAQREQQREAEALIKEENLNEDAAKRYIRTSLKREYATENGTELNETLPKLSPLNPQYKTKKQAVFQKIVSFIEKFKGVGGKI
Briefly: Coupled spectrophotometric ATPase assay. As to conditions: EcoR124I pre-incubated with protein, reaction initiated by scDNA; Figure S1. The class given is biochemical.

With “Ocr: anti-restriction protein of bacteriophage T7 (overcome classical restriction), mimics B-DNA”, the “Concentration at which ATP hydrolysis of EcoR124I is retarded / abolished” value worked out at 100 nM.
